Experiments:
[1] = target: T1, cynomolgus monkey BDCA2 (full-length, cell surface, E73 SNP form) (cynomolgus monkey, UniProt Q8WTT0 1-213 (human entry)); assay: indirect method: flow cytometry of pDCs in cynomolgus whole blood, unlabelled BIIB059 titrated, free BDCA2 detected with the competitor BIIB059-A647 at 10 ug/mL [panel Cynomolgus monkey 7]
T1 construct: also called cyno BDCA2; surface cynomolgus monkey BDCA2
T1 chain: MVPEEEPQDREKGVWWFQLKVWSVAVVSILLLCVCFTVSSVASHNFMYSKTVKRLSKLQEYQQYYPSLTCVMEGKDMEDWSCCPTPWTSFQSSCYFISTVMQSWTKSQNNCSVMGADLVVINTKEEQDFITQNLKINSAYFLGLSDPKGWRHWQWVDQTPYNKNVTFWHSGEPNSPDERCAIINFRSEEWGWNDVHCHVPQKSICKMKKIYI
Procedure: (§1) The MFI of PE (open symbols, graphed on the left y-axis) or A647 (closed symbols, graphed on the right y-axis) was calculated in FlowJo software, and graphed using GraphPad Prism software (four-parameter nonlinear regression curve fit of log-transformed data).

[2] = target: T1, cynomolgus monkey BDCA2 (full-length, …); assay: indirect method: flow cytometry of pDCs in cynomolgus whole blood, unlabelled BIIB059 titrated, free BDCA2 detected with the competitor BIIB059-A647 at 10 ug/mL [panel Cynomolgus monkey 1]
Procedure: as §1
(§2) The maximal values were taken from the values at the plateau in each assay (FIGS. 24 and 25).

[3] = target: T1, cynomolgus monkey BDCA2 (full-length, …); assay: flow cytometry, whole blood pDCs of cynomolgus monkey donor 8, anti-human IgG PE secondary
Procedure: (§3) The MFI of PE was calculated in FlowJo software, and the percent of maximal binding, using the 40 μg/mL point as 100%, was computed. Each line represents one individual cynomolgus monkey, for a total of twelve cynomolgus monkeys, and graphed using GraphPad Prism software (four-parameter nonlinear regression curve fit of log-transformed data). Staining was repeated once a week for three weeks total.
as §2
(§4) MFI of PE was calculated with FlowJo software, and EC50 curves were generated in GraphPad Prism software.

[4] = target: T1, cynomolgus monkey BDCA2 (full-length, …); assay: FACS
[5] = target: T2, human BDCA2 (full-length, cell surface) (human, UniProt Q8WTT0 1-213); assay: FACS
T2 construct: also called huBDCA2; surface human BDCA2
T2 sequence: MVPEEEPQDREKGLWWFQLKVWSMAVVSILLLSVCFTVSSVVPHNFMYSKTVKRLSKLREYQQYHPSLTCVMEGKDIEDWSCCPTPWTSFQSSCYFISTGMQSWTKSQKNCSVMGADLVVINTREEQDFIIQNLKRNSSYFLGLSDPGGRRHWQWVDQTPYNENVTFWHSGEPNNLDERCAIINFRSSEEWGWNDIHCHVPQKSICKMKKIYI

[6] = target: T1, cynomolgus monkey BDCA2 (full-length, …); assay: flow cytometry, whole blood pDCs of cynomolgus monkey donor 5, anti-human IgG PE secondary
Procedure: as §2, §4

[7] = target: T1, cynomolgus monkey BDCA2 (full-length, …); assay: flow cytometry, whole blood pDCs of cynomolgus monkey donor 1, anti-human IgG PE secondary
Procedure: as §3, §2, §4

[8] = target: T1, cynomolgus monkey BDCA2 (full-length, …); assay: flow cytometry, whole blood pDCs of cynomolgus monkey donor 2, anti-human IgG PE secondary
Procedure: as §3, §2, §4

[9] = target: T1, cynomolgus monkey BDCA2 (full-length, …); assay: flow cytometry, whole blood pDCs of cynomolgus monkey donor 3, anti-human IgG PE secondary
Procedure: as §3, §2, §4

[10] = target: T1, cynomolgus monkey BDCA2 (full-length, …); assay: flow cytometry, whole blood pDCs of cynomolgus monkey donor 12, anti-human IgG PE secondary
Procedure: as §3, §2, §4

[11] = target: T1, cynomolgus monkey BDCA2 (full-length, …); assay: flow cytometry, whole blood pDCs, average of the twelve cynomolgus monkey donors
Procedure: as §2, §4

[12] = target: T1, cynomolgus monkey BDCA2 (full-length, …); assay: flow cytometry, whole blood pDCs of cynomolgus monkey donor 10, anti-human IgG PE secondary
Procedure: as §2, §4

[13] = target: T2, human BDCA2 (full-length, cell surface); assay: cell-based or functional assay

B1: BIIB059 (antibody, human IgG1, kappa)
heavy: not shown
light: DIQLTQSPSSLSASVGDRVTITCKASQSVDYDGDSYMNWYQQKPGKAPKLLIYAASTLESGVPSRFSGSGSGTDFTLTISSLQPEDFATYYCQQANEDPRTFGQGTKVEIKRTVAAPSVFIFPPSDEQLKSGTASVVCLLNNFYPREAKVQWKVDNALQSGNSQESVTEQDSKDSTYSLSSTLTLSKADYEKHKVYACEVTHQGLSSPVTKSFNRGEC
notes: Humanized IgG1 kappa, mature chains; in some assays labelled with Alexa647; also called hu24F4 H4/L1 C95A; H4-L1-C95A (YL751/YL746)
[1]
  IC50 (read off the curve): ~2 µg/mL
[2]
  IC50 (read off the curve): ~1 µg/mL
[3]
  EC50: 1.2 µg/mL
[4]
  EC50: 7 nM
[5]
  EC50: 7 nM
[6]
  EC50: 0.71 µg/mL
[7]
  EC50: 0.81 µg/mL
[8]
  EC50: 1 µg/mL
[9]
  EC50: 0.95 µg/mL
[10]
  EC50: 1.6 µg/mL
[11]
  EC50: 1.2 µg/mL
[12]
  EC50: 1.2 µg/mL
[13]
  EC50 of BIIB059-mediated BDCA2 internalization (whole blood, 10 donors): 0.02 µg/mL
  IC50 for inhibition of TLR9-induced IFNα production by PBMC: 0.001 µg/mL
  IC50 for inhibition of TLR9-induced IFNα production by PBMC from healthy donors: 0.04 µg/mL
  IC50 for inhibition of immune complex-induced IFNα by pDCs: 0.04 µg/mL
  IC50 of BIIB059 mediated inhibition of TLR9 induced IFNα (whole blood, 10 donors): 0.07 µg/mL

Source: US20180362652A1 (Biogen, published 2018)
